# From patent US20170306033A1 (Amgen, published 2017)
# Positions count from the first letter of the chain named.
# T1: human PAC1 receptor (human, UniProt P41586 21-468)
# T1 sequence: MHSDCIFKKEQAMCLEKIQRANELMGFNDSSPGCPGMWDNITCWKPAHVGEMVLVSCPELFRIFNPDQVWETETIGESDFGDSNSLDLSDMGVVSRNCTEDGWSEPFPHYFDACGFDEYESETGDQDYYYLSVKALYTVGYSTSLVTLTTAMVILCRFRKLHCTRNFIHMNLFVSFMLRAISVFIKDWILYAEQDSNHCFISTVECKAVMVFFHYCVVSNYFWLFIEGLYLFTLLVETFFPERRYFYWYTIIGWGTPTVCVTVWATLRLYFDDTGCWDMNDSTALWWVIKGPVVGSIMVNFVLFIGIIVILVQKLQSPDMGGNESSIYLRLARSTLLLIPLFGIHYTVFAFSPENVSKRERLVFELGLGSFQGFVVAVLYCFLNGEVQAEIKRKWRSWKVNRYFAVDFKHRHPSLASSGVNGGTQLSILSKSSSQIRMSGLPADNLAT
# B1: iPS:327701 (bispecific antibody, human IgG1, kappa, lambda, N297G)
# light 1: DIQLTQSPSFLSASVGDRVTITCRASQSIGRSLHWYQQKPGKAPKLLIKYASQSLSGVPSRFSGSGSGTEFTLTISSLQPEDFATYYCHQSSRLPFTFGPGTKVDIKRTVAAPSVFIFPPSDEQLKSGTASVVCLLNNFYPREAKVQWKVDNALQSGNSQESVTEQDSKDSTYSLESTLTLSKADYEKHKVYACEVTHQGLSSPVTKSFNRGEC
# heavy 1: not shown
# light 2: QSVLTQPPSVSAAPGQKVTISCSGSSSNIGNNYVSWYQQLPGTAPKLLIYDNNKRPSGIPDRFSGSKSGTSTTLGITGLQTGDEADYYCGTWDSRLSAVVFGGGTKLTVLGQPKANPTVTLFPPSSEELQANKATLVCLISDFYPGAVTVAWKADGSPVKAGVETTKPSKQSNNKYAAKSYLSLTPEQWKSHRSYSCQVTHEGSTVEKTVAPTECS
# heavy 2: QVQLVESGGGVVQPGRSLRLSCAASGFTFSSFGMHWVRQAPGKGLEWVAVISFDGSIKYSVDSVKGRFTISRDNSKNTLFLQMNSLRAEDTAVYYCARDRLNYYESSGYYHYKYYGMAVWGQGTTVTVSSASTKGPSVFPLAPSSKSTSGGTAALGCLVKDYFPEPVTVSWNSGALTSGVHTFPAVLQSSGLYSLESVVTVPSSSLGTQTYICNVNHKPSNTKVDKKVEPKSCDKTHTCPPCPAPELLGGPSVFLFPPKPKDTLMISRTPEVTCVVVDVSHEDPEVKFNWYVDGVEVHNAKTKPCEEQYGSTYRCVSVLTVLHQDWLNGKEYKCKVSNKALPAPIEKTISKAKGQPREPQVYTLPPSRKKMTKNQVSLTCLVKGFYPSDIAVEWESNGQPENNYKTTPPVLKSDGSFFLYSKLTVDKSRWQQGNVFSCSVMHEALHNHYTQKSLSLSPGK
# B2: iPS:327702 (bispecific antibody, human IgG1, kappa, lambda, N297G)
# light 1: EIVLTQSPATLSLSPGERATLSCRASQSVGRSLHWYQQKPGQAPRLLIKYASQSLSGIPARFSGSGSGTDFTLTISSLEPEDFAVYYCHQSSRLPFTFGPGTKVDIKRTVAAPSVFIFPPSDEQLKSGTASVVCLLNNFYPREAKVQWKVDNALQSGNSQESVTEQDSKDSTYSLESTLTLSKADYEKHKVYACEVTHQGLSSPVTKSFNRGEC
# heavy 1: not shown
# light 2: B1 light 2
# heavy 2: B1 heavy 2
# B3: iPS:327711 (bispecific antibody, human IgG1, kappa, lambda, N297G)
# light 1: not shown
# heavy 1: not shown
# light 2: B1 light 2 with T72A
# heavy 2: B1 heavy 2 with E105D
# Molecular target: T1, human PAC1 receptor
# Test: cell-based or functional assay
row,% inhibition of human PAC1,Binder
1,41%,B1
2,86%,B2
3,97%,B3

# Molecular target: human CGRP receptor (human, UniProt Q16602 23-461; O60894 27-148)
# Sequence (Q16602 23-461 limits assumed, chain 1 of 2): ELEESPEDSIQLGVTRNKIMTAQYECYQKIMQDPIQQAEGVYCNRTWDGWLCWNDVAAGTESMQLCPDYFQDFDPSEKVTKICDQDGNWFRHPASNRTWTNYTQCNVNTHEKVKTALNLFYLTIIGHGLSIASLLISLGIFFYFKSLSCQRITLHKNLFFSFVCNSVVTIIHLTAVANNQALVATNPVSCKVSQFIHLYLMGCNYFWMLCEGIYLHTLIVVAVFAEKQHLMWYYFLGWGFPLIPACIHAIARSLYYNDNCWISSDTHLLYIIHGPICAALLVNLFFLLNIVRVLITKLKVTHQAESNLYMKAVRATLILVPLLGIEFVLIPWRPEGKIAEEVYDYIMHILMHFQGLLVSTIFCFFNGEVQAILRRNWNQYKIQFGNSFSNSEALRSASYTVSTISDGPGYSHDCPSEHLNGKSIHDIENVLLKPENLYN
# Sequence (O60894 27-148 limits assumed, chain 2 of 2): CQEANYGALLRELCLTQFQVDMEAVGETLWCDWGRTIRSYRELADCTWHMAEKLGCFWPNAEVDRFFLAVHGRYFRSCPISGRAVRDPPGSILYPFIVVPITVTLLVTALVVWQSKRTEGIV
# Test: cell-based or functional assay
row,% inhibition of human CGRPR,Binder
1,73%,B1
2,79%,B2
3,87%,B3
